According to patent US20230159663A1 (VIRTUOSO BINCO, published 2023):

Assays:
[1] = target: T1, human CD47 extracellular domain with C-terminal 6×His tag (human, UniProt Q08722 19-139, limits assumed); assay: ELISA on human CD47
T1 construct: extracellular domain; Made in Expi293F cells (section 5.4.1); also called recombinant CD47; huCD47

[2] = target: T2, human EpCAM extracellular domain with C-terminal His tag (Novoprotein #C339) (human, UniProt P16422 24-265); assay: assay not given; ranks EpCAM affinity among Bi-1, Bi-2 and Bi-8
T2 construct: extracellular domain; Bought protein
T2 sequence (looked up): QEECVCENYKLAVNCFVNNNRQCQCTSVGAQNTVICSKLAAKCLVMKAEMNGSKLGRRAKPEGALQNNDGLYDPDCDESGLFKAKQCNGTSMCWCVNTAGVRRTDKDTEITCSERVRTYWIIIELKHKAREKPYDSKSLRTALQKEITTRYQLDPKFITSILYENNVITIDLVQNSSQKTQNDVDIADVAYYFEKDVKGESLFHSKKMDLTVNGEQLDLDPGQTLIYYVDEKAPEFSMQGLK

[3] = target: T1, human CD47 extracellular domain with …; assay: ELISA on human CD47; EC50 given as a bin, limits from the table's legend; upper limit of bin A
Description: (§1) A 96-well plate was coated overnight at 4° C. with 1 μg/ml recombinant CD47. After washing 3 times, the plate was blocked with 300 μl 1% BSA in PBST at 37° C. for 1 hour. Serially diluted antibodies were added and incubated at 37° C. for 1 hour. […] The plate was washed again 4 times with PBST, incubated with 3,3′,5,5′-tetramethylbenzidine (TMB) substrate for 15 min at room temperature, terminated with 1N HCl, and then read at 450 nm.

[4] = target: T3, CD47 expressed on human red blood cells (human, UniProt Q08722 19-323); assay: flow cytometry on human red blood cells
T3 construct: whole, on cells; also called RBCs; RBC
Description: The RBC binding assay was performed by spinning down fresh human whole blood at 200 g for 10 minutes. Collected RBCs were washed twice with PBS and counted using flow cytometry. 1×10⁶ cells were dispensed into each well of a 96 well culture plate. Serially diluted anti-CD47 antibodies were added and incubated for 1 hour at 4° C. Cells were washed with FACS buffer (PBS+2% FBS) twice. […] Cells were washed twice and resuspended in 200 μl of FACS buffer and analyzed by flow cytometry.

[5] = target: T1, human CD47 extracellular domain with …; assay: ELISA on human CD47; EC50 given as a bin, limits from the table's legend; lower limit of bin A
Description: as §1

[6] = target: T1, human CD47 extracellular domain with …; assay: ELISA on human CD47; EC50 given as a bin, limits from the table's legend; upper limit of bin C
Description: as §1

[7] = target: T1, human CD47 extracellular domain with …; assay: ELISA on human CD47; EC50 given as a bin, limits from the table's legend; lower limit of bin C
Description: as §1

B1: Bi-8 (3C-KIH EpCAM × CD47 scFv bispecific antibody) (bispecific antibody)
chain: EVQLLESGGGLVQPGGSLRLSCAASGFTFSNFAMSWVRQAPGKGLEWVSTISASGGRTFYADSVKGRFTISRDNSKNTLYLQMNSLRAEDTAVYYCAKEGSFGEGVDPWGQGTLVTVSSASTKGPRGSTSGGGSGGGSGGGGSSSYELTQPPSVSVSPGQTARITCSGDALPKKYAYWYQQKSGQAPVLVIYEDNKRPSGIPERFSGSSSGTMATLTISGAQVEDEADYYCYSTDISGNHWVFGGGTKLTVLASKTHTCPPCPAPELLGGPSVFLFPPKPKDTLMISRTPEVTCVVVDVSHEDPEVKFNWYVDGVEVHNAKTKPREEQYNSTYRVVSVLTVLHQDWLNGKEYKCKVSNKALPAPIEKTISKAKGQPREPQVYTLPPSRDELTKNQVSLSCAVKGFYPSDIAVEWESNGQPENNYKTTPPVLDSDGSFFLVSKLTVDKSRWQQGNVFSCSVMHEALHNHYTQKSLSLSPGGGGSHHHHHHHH
heavy: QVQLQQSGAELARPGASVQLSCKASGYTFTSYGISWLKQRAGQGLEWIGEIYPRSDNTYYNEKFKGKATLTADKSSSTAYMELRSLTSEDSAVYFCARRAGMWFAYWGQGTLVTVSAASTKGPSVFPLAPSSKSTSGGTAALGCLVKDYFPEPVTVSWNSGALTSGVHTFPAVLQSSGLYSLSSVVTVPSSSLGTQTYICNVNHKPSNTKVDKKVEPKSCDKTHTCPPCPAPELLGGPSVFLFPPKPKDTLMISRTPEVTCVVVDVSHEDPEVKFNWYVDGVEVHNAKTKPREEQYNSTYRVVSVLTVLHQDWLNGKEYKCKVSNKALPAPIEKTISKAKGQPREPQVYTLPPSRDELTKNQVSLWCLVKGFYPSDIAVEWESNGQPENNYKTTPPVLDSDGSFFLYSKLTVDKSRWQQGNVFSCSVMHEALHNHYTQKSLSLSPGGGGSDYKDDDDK
VL: EIVLTQSPAITAASLGQKVTITCSASSSVSDMHWYQQKSGTSPKPWIYEISKLASGVPTRFSGSGSGTSYSLTISSMEAEDAAIYYCQHWSYPLMTFGGGTKLEIK
notes: Three-chain knob-into-hole format
binding result [1]: binds
binding result [2]: binds

B2: VIR47 hIgG1 (antibody)
heavy: not shown
light: SYEMTQPPSVSVSPGQTARITCSGDALPKKYAYWYQQKSGQAPVLVIYEDNKRPSGIPERFSGSSSGTMATLTISGAQVEDEADYYCYSTDISGNHWVFGGGTELTVLGQPKAAPSVTLFPPSSEELQANKATLVCLISDFYPGAVTVAWKADSSPVKAGVETTTPSKQSNNKYAASSYLSLTPEQWKSHRSYSCQVTHEGSTVEKTVAPTECS
notes: also called VIR47 IgG1; IgG1 form of VIR47
EC50 [3]: ≤ 0.15 nM
fold higher concentration required for RBC binding, against CD47 BMK-1 [4]: > 20 fold
EC50 [5]: ≥ 0.01 nM

B3: VIR47 IgG1 HC F98A (antibody, V domains shown)
VH: EVQLLESGGGLVQPGGSLRLSCAASGFTFSNFAMSWVRQAPGKGLEWVSTISASGGRTFYADSVKGRITISRDNSKNTLFLQMNGLRAEDTAVYYCAKEGSAGEGVDPWGQGTLVTVSS
VL: SYEMTQPPSVSVSPGQTARITCSGDALPKKYAYWYQQKSGQAPVLVIYEDNKRPSGIPERFSGSSSGTMATLTISGAQVEDEADYYCYSTDISGNHWVFGGGTELTVLG
notes: Alanine-scan variant of the IgG1 form of VIR47; position in Kabat-style numbering, not the linear count on the entry
EC50 [6]: ≤ 5 nM
EC50 [7]: ≥ 0.4 nM
